According to the RNAGym collection of RNA variant scans (doi:10.1073/pnas.2313332121):

B1: TPR t1 (parent)
chain: GACCAAUCUGCCCUCAGAGCUCGAGAACAUCUUCGGAUGCAGAGGAGGCAGGCUUCGGUGGCGCGAUAGCGCCAACGUCCUCAACCUCCAAUGCAUCCCACCACAUGAUGAUGCCUGAAGAGCCUUGGUUUUUUG

Variants of: B1
Assay: polymerase ribozyme fitness, log enrichment relative to wild type (log ratio); higher = more active; in vitro selection for triplet polymerase activity
How it was run: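 PCR was used to build mutant libraries for each subunit of a heterodimeric triplet polymerase ribozyme, which were then transcribed. A single in vitro selection round, in triplicate, used a frozen incubation at −7 °C and recovered extended constructs by gel excision, streptavidin beads and RT-PCR. Fitness is the logarithm of genotype enrichment relative to wild-type enrichment, averaged over replicates with inverse-variance weights. The logarithm is base 2, and after Illumina sequencing only genotypes with ≥10 input reads and ≥1 read per output were kept.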

Variant | polymerase ribozyme fitness (log ratio)
C11U C88U C104A A121G | 0.139
C11G A27G | -1.52
C11U C64U | -0.331
C11A C89U G135U | -2.46
C11G C73U C114U | -1.42
C11A C62G | -2.04
C11A C62U | -1.47
C11A C62A | -2.86
C11G G36U C56G C82U | -0.948
C11G A18C C49A C88G U109A | -6.8
C11G U112A | 1.42
C11U A27G C76G C80A C85A U112G | -0.749
C11U G63A | -1.15
C11U G63U | -1.27
C11G C15U C20U C70G | -3.71
C11G C101U | 0.142
C11U G113A | -1.33
C11U C89A U112G | -1.71
C11A G71A G77A C82G | -3.86
C11U G60A U131G | -2.06
C11A C15A A37G C40A G120U | -6.11
C11G C124G | 1.42
C11U C79G U92G | -6.09
C11U A43U C70U C98U G122U | -4.47

Variant | polymerase ribozyme fitness (log ratio)
C11A A37G U81G | -5.66
C11U C13U | -1.63
C11G G42A C72A C88U | -1.46
C11A A111C U131A | -2.03
C11A C56U G69A C76A C79A C124A | -7.17
C11U G61A C94G | -0.792
C11A G120U | 0.0217
C11A G48A C62U G128C | -3
C11U G48A | -1.69
C11U G48U | -0.841
C11A C53G C64U C97U C101G G135C | -3.13
C11G G113A A119U G120A | -0.282
C11U C12G | -0.553
C11U C12U | -0.628
C11U C70U C102U | -3.34
C11U A29U C53U C72A C123A | -0.568
C11G C64U C114G C115A C123G C124A | -4.26
C11A A84U U92C C98U | -4.14
C11G A46U C56U C70A C85A C104U | -6.28
C11G G93U C123U | 0.981
C11U G57A G63A C101G | -3.69
C11G A29G C72G C123A | -0.598
C11G C64U C72A C89U | -1.01
C11A C15U G48U A90G U112A | -2.88

Variant | polymerase ribozyme fitness (log ratio)
C11U A16U G39C G42A C56U | -3.73
C11U A41U G69U A74G G117A U125A U130A U131A | -6.86
C11G A16G G60A C88U C124A | -0.731
C11U C28U G120A C124G | 0.0586
C11G G61A | 1
C11G G61C | -1.35
C11A G58C C72U G122A U125A | -2.52
C11U G61A | 0.135
C11U C40G C64U | -1.72
C11U A16U A26U C62A G120C | -5.1
C11A U109A | -6.59
C11G C15A G19U G69C C98A C114U | -6.19
C11A C40U G45A G61A U96G C124A | 0.365
C11A C73U | -1.2
C11U A18G | -3.57
C11A G45U | -2.48
C11A C72U A75G U129A | -3.18
C11G G35C G45U G71A U81A U112A U125A | -6.05
C11G A18U A46U G57A | -4.09
C11G C94U | -0.128
C11U A18U C34U C64G C79U C123A | -5.92
C11G G63C A105U C123G | -2.11
C11U A46C | -1.05
C11U A50U G61C C76A A111C | -6.51

Variant | polymerase ribozyme fitness (log ratio)
C11U C56U | -0.0444
C11G A46U G60U A74C A121U | -3.52
C11G C20U C22A G39C | -5.35
C11G G39A C49G C53U G69A G120C | -2.46
C11A U38C | -2.34
C11U G45A | -0.828
C11G G63C U96A | -0.969
C11A C12A C62U C102A C115U U130G | -8.31
C11U C101A | -1.8
C11U C101G | -2.02
C11A A83G C85U G120C | 0.982
C11G G36A C73U | -0.782
C11A G52C A74C A111C | -1.71
C11G G36C G77A | -0.0394
C11U G42A C85G | -3.59
C11U A18U C53U C72G C82G U96G C98U C104U U109C | -7.77
C11A U126A U129C | -2.33
C11U C53G A91U | -1.86
C11G C34A G61U C62U C80G C86U G120A | -6.66
C11G C49U C72G | -0.598
C11U C13A C89U | -2.3
C11A G47A G77A | -2.62
C11G A27U C49A G61C A75U A84G | -3.81
C11U G17A U106A | -3.29

Variant | polymerase ribozyme fitness (log ratio)
C11A G57U | -1.56
C11G A29C U55G A84G G113A | -4.47
C11G C73G C101U U112C G117C | -3.04
C11A A27G A41U C49G G61U G120A | -3.04
C11A A84C C85U U87A C89G C124A | -4.77
C11U C115G | -1.7
C11G G39U C49G C64U G117C | -4.26
C11A C13G C62G | -3.87
C11U C22U C70U C99U U112A | -6.17
C11U C94A C102A | -3.51
C11A C40U G48C C79U C102U | -5.15
C11A G52A C70U A90G | -2.22
C11G A29G A43C C49A A74C C85G G113A G135U | -3.78
C11U G45A G51A C76G A91C C114G | -5.71
C11A A37U G63C U116G | -5.29
C11G C13U A84U A91U G93C | -2.67
C11G G44C G77A C80A U130A U131A | -4.18
C11G C79U | -0.0995
C11U G60A | -0.708
C11G C13G C56U G93A | -0.689
C11G C13G G45A G117A | -1.92
C11G G44C C72G C88U C101U | -0.537
C11G G107C U112C C123U G128C | -5.88
C11U A41C C49G U59A G61U A91C U130G | -3.24

Variant | polymerase ribozyme fitness (log ratio)
C11U C73G C124U | 0.969
C11U C104A | -2.66
C11U C104G | -6.74
C11U G42C C53A | -2.22
C11A G19C G57U | -5.03
C11U G47C C56U U78A A100U C115U U131C | -4.41
C11G U87G C123G | 1.19
C11A C115U G122U | -0.883
C11G G48U | -1.46
C11G G48A | -0.377
C11G C34G C49U U106C C115G C124G | -6.56
C11A G42U G61U C114G U130A U132G | -4.29
C11G G120C G135C | 2.47
C11U C15A C40U C73A C123G | -0.889
C11A G71A A91G A121U | 0.674
C11U G52U A83U G110C C123U | -5.57
C11U C49U G63A U109A G117C A119U | -7.12
C11G C49A U81G G93U C101G U109A | -5.65
C11G C12G | -1.01
C11G C73G C85A A111G | -1.47
C11U C89G | -1.89
C11G A105U | -2.2
C11U A100C G110A | -2.68
C11G C64U A74U C123U | 0.798

Variant | polymerase ribozyme fitness (log ratio)
C11U G17A C82A | -4.52
C11G C20U | -0.656
C11U G77U A111G U112C G122A | -0.084
C11U C114U U132A | -3.3
C11U C22G C40U G69A | -5.5
C11G C73U U96A | -0.543
C11U C73G C102A A103U | -5.8
C11U C15A G45U C72A U129A | -5.41
C11A G69A | -4.25
C11A G69U | -0.0927
C11A A27U C34A C72G C97A G120U G127A U129C | -6
C11U C62U | -0.515
C11U G45A U78A C86A U106A U125A | -6.24
C11G C76A U112A G117C G128C U134G | -5.47
C11A C15U C34G C62G A95U G110U G120A | -7.3
C11G G25C G39A C56A U67G C72A C82A A111C | -6.95
C11G G57A C73A C123G | 0.666
C11A C56A | -1.49
C11G C15A U106A G117U G127U | -0.216
C11G C98A | -3.33
C11U C115A U125G | -2.51
C11A C85U G120U | 0.755
C11U C85U | -1.93
